Changes are numbered by the printed parent chain. Values belong to the binder of their own block, whether it stands above or below them.
Key:
[1] = target: T1, mouse IL-5 (mouse, UniProt P04401 21-133); test: cell-based or functional assay
T1 sequence (looked up): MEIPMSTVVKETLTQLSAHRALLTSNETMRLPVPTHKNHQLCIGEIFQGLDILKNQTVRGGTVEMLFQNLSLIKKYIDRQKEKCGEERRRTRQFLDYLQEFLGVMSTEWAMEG

[2] = target: T2, human IL-4Rα (SPR target) (human, UniProt P24394 26-232, limits assumed); test: SPR as described in Example 2
T2 construct: also called recombinant human IL-4Rα-Fc
T2 sequence (looked up): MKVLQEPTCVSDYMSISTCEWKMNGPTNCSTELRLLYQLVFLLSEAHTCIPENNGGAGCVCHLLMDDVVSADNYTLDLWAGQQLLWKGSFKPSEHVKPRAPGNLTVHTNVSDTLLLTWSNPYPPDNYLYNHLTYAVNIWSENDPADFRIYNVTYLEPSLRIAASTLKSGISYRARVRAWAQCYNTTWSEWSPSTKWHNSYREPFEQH

[3] = target: T3, human IL-4Rα on the cells of the hIL-4 proliferation assay (human, UniProt P24394 26-825); test: cell-based or functional assay
T3 sequence (looked up): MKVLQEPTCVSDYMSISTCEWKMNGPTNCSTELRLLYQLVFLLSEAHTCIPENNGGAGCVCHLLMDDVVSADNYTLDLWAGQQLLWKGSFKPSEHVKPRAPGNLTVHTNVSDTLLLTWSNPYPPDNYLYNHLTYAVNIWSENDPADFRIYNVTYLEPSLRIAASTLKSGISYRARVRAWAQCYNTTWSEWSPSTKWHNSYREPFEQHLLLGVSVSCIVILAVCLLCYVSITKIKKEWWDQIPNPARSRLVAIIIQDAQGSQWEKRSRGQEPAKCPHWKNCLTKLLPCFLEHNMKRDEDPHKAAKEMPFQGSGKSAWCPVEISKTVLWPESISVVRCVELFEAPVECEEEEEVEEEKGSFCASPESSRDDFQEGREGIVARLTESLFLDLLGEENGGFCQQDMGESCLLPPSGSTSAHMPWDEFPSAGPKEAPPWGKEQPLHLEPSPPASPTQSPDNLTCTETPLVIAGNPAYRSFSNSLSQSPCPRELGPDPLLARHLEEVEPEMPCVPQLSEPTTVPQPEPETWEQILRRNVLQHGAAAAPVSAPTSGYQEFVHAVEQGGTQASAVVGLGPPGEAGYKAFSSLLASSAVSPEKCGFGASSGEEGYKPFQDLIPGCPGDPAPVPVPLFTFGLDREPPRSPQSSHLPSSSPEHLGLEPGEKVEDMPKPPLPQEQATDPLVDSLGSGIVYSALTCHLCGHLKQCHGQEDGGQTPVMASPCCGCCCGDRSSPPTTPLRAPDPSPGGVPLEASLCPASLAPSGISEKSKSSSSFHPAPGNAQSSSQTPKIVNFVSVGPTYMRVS

[4] = target: T2, human IL-4Rα (SPR target); test: SPR (Biacore 3000), periplasmic Fab over CM5 chip coated with human IL-4Rα
From the text: (§1) After 3 rounds of selection, clones were selected (from round 2 and 3), and Fab was produced from the periplasmic extracts and tested by SPR.

[5] = target: T4, cynomolgus recombinant IL-4Rα (cynomolgus (table head: cyno/rhesus), UniProt A0A2K5V556 26-232); test: SPR (Biacore 3000), periplasmic Fab over CM5 chip coated with cyno IL-4Rα
T4 construct: Bought reagent; also called cyno/rhesus IL-4Rα; cyno IL-4Rα
T4 sequence: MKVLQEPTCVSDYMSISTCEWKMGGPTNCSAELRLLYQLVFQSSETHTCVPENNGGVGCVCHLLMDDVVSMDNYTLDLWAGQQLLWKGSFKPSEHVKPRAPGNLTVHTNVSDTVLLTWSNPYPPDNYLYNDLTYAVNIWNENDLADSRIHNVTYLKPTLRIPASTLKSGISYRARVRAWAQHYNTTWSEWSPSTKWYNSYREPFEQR
From the text: as §1

[6] = target: T5, human IL-5 (human, UniProt P05113 20-134); test: SPR as described in Example 2
T5 construct: also called hIL-5; recombinant human IL-5
T5 sequence (looked up): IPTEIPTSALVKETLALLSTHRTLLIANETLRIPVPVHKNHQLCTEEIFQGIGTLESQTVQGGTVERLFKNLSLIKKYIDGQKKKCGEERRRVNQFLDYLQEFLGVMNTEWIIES

[7] = target: T5, human IL-5; test: cell-based or functional assay

B3: h4R3D6 human IL-4Rα mAb (antibody, V domains shown)
VH: QVQLQESGGGLVQPGGSLRLSCAASGFTFSSYSLTWVRQAPGKGLEWVSTIKARGGTTLYADSVKDRFTISRDNAKNTLYLLMNSLKPEDTAVYYCAKPLYNNFAGDFGSWGQGTTVTVSS
VL: DIQMTQSPSSLSASLGDRVTITCQASQSISSYLAWYQQKPGQAPKLLIYGGSRLQTGVPSRFSGSGSGTSFTLTISGLETEDLATYYCLQDYSWPLTFGQGTKVELK
notes: also called 4RMP3D6
Kd [2]: 0.0551 nM | IC50 (nM), proliferation assay with hIL-4 (1.5 ng/mL) [3]: 0.6 nM

B4: 3D6wt Fab (parental 4RMP3D6 as Fab) (Fab, V domains shown)
VH: B3 VH
VL: B3 VL
notes: also called h4R3D6
R0 (binding) [4]: 204 | koff [4]: 0.00053 s⁻¹ | R0 (binding) [5]: 26 | koff [5]: 0.0017 s⁻¹

B7: 150A09 Fab (variant of 4RMP3D6) (Fab, V domains shown)
VH: B3 VH with A97V, N102S
VL: B3 VL with K45R, L89Q, V104L, L106I
notes: Fab from periplasmic extract, with CH1 and CK constant domains; also called VH150A09
R0 (binding) [4]: 53 | koff [4]: 0.00084 s⁻¹ | R0 (binding) [5]: 80 | koff [5]: 0.002 s⁻¹

B8: 153E11 Fab (variant of 4RMP3D6) (Fab, V domains shown)
VH: B3 VH with D107H
VL: B3 VL with L89Q, V104L, L106I
notes: Fab from periplasmic extract, with CH1 and CK constant domains; also called VH153E11
R0 (binding) [4]: 56 | koff [4]: 0.00043 s⁻¹ | R0 (binding) [5]: 78 | koff [5]: 0.0014 s⁻¹

B10: h4R5D1 human IL-4Rα mAb (antibody, V domains shown)
VH: QLQLVESGGGLVQPGGSLRLSCAASGFTFSSYIMSWVRQAPGKGLEWVSGISSGGGITAYADSVKGRFTISRDNAKNTLYLQMNSLKPDDTAVYYCVAGLLRVEGYWGQGTQVTVSS
VL: QTVVTQEPSLSVSPGGTVTLTCGLSSGSVTSSNYPGWYQQTPGQAPRSLIYATASRHSGVPSRYSGSISGNKATLTITGAEPEDEADYYCALHKGTYVFGGGTKLTVL
notes: also called h4RMP5D1; 4RMP5D1
Kd [2]: 0.0442 nM | IC50 (nM), proliferation assay with hIL-4 (1.5 ng/mL) [3]: 0.2 nM

B11: h5MP90E7 human IL-5 mAb (antibody, V domains shown)
VH: EVQLVESGGGLVQPGGSLRLSCAASGFAFSSSFMSWVRQAPGKGLEWVSTINGNGGTYYADSMKGRFTISRDNVKSTVTLQMNSLKPEDTAVYYCAADWISGGYYFPALGYWGQGTQVTVSS
VL: SYELTQSPSVSVALRQTAKITCGGNNIGSKSAQWYQQKPGQAPVLVIYADSRRPSGIPERFSGSNSGNTATLTISGAQAEDEADYYCQVWDVSTNAAVFGGGTHLSVL
Kd [6]: 0.129 nM | IC50 (pM), proliferation assay with hIL-5 (0.25 ng/mL) [7]: 8.84 pM

B13: h5MP90A9 human IL-5 mAb (antibody, V domains shown)
VH: B11 VH
VL: B11 VL with V10L, I20M, N26K, S62A, S66A, V92I, T94A, S106T
Kd [6]: 0.0835 nM | IC50 (pM), proliferation assay with hIL-5 (0.25 ng/mL) [7]: 4.99 pM

B14: h5MP90G7 human IL-5 mAb (antibody, V domains shown)
VH: B11 VH
VL: B11 VL with S29R, V92S, T94A, S106T
Kd [6]: 0.113 nM | IC50 (pM), proliferation assay with hIL-5 (0.25 ng/mL) [7]: 1.61 pM

B15: h5MP26H7 human IL-5 mAb (antibody, V domains shown)
VH: B11 VH
VL: SYELTQSPSVSVAQTQTAKITCGGDNIGSKSVQWYQQKPGQAPVLAIYADTRRPSGIPERFSGSNSGNTATLTITGAQAEDEADYYCQVWDTSTNVAVFGGGTRLTIL
Kd [6]: 0.0749 nM | IC50 (pM), proliferation assay with hIL-5 (0.25 ng/mL) [7]: 37.5 pM

B16: h5MP90D9 human IL-5 mAb (antibody, V domains shown)
VH: B11 VH
VL: B11 VL with K30L, A32T, S51N, P58H, S75G, V92N, T94A, A97L, S106T
Kd [6]: 0.0264 nM | IC50 (pM), proliferation assay with hIL-5 (0.25 ng/mL) [7]: 6.84 pM

More lines, now with the values ahead:

EC50 (nM), inhibition of mIL-5-induced (0.25 ng/mL) proliferation of TF-1 cells [1]: 1.86 nM
B1: 95G7hIgG1 (IL-5 antibody 5MP95G7 as human IgG1) (antibody, V domains shown)
VH: ELQVVESGGGLVQPGGSLRLSCAASGFTFSSYGMSWVRQAPGKGLEWVSTISRGGDSTSYADSVKGRFTISKDNAKNTLYLQMNSLEPEDTAVYYCANLGRLGFGRGQGTQVTVSS
VL: SYELTQPPSVSGSPGKTLTISCAGTSSDIGDWNYVSWFQQLPGTAPKLLISEVNKRASGIPDRFSGSKSGNTASLSISGLQSEDEADYYCTSYRSGNNWVFGGGTHLTVL

Kd [2]: 0.0818 nM | IC50 (nM), proliferation assay with hIL-4 (1.5 ng/mL) [3]: 0.4 nM
B2: h4R3B2 human IL-4Rα mAb (antibody, V domains shown)
VH: QLQLVESGGGLVQPGGSLRLSCAASGFTFSSYDMTWVRQAPGKGLEWVSAINSGGGSTNYADSVKGRVTISRDNAKNTLYLQMNSLKPEDTAVYFCARALRTVVHDRRLFYIDSWGQGTQVTVSS
VL: SYELTQSPSVSVALRQTAKITCGGNNIGSKSAQWYQQKPGQAPVLVIYADSRRPSGIPERFSGSNSGNTATLTVSGAQAEDEADYYCQVWDTSAVVFGGGTRLTVL
notes: also called h4RMP3B2; 4RMP3B2

R0 (binding) [4]: 68 | koff [4]: 0.002 s⁻¹ | R0 (binding) [5]: 146 | koff [5]: 0.00033 s⁻¹
B5: 153A11 Fab (variant of 4RMP3D6) (Fab, V domains shown)
VH: B3 VH with L82Q, N102S, F104L
VL: B3 VL with P40S, D91V, V104L, L106I
notes: Fab from periplasmic extract, with CH1 and CK constant domains; also called VH153A11

R0 (binding) [4]: 110 | koff [4]: 0.0012 s⁻¹ | R0 (binding) [5]: 170 | koff [5]: 0.0026 s⁻¹
B6: 152B10 Fab (variant of 4RMP3D6) (Fab, V domains shown)
VH: B3 VH with M83V, F104L
VL: B3 VL with T56A, S76G, L89Q, V104L, L106I
notes: Fab from periplasmic extract, with CH1 and CK constant domains; also called VH152B10

R0 (binding) [4]: 58 | koff [4]: 0.00069 s⁻¹ | R0 (binding) [5]: 94 | koff [5]: 0.0017 s⁻¹
B9: 152A07 Fab (variant of 4RMP3D6) (Fab, V domains shown)
VH: B3 VH with N102S, F104L, F108L
VL: B3 VL with V104L, L106I
notes: also called VH152A07

Kd [6]: 0.133 nM | IC50 (pM), proliferation assay with hIL-5 (0.25 ng/mL) [7]: 6.93 pM
B12: h5MP90C8 human IL-5 mAb (antibody, V domains shown)
VH: B11 VH
VL: B11 VL with N25D, K38S, S51A, R52S, Q78R, V92T, S106T
